{
  "source": "paper PMC7498345",
  "about": "(Nucleic Acids Research, 2020)",
  "data": [
    {"target": "GST-PHF6 WT (UniProt Q8IWS0)", "experiment": "MST", "settings": "not given", "units": {"fold higher affinity than for the H2B WT peptide": "fold"}, "values": [
      {"molecule": "H2B peptide (1:20) with K12Ac modification", "fold higher affinity than for the H2B WT peptide": 5}
    ]},
    {"system": "H2BK120 of H2B WT-containing mono-nucleosomes", "experiment": "In vitro ubiquitination assay, H2B-Flag WT mono-nucleosomes", "assay_type": "biochemical", "settings": "GST-PHF6 WT/MTs as E3; E1, E2, ubiquitin, 50 μM ZnCl2; 37°C, 1 h", "values": [
      {"molecule": "PHF6 WT: PHF6 WT expressed as GST fusion protein in E. coli Rosetta (DE3) cells (protein, labeled with the dye NT-647 (Cy5), in the MST only; left off: GST, end not stated, kept) MSSSVEQKKGPTRQRKCGFCKSNRDKECGQLLISENQKVAAHHKCMLFSSALVSSHSDNESLGGFSIEDVQKEIKRGTKLMCSLCHCPGATIGCDVKTCHRTYHYHCALHDKAQIREKPSQGIYMVYCRKHKKTAHNSEADLEESFNEHELEPSSPKSKKKSRKGRPRKTNFKGLSEDTRSTSSHGTDEMESSSYRDRSPHRSSPSDTRPKCGFCHVGEEENEARGKLHIFNAKKAAAHYKCMLFSSGTVQLTTTSRAEFGDFDIKTVLQEIKRGKRMKCTLCSQPGATIGCEIKACVKTYHYHCGVQDKAKYIENMSRGIYKLYCKNHSGNDERDEEDEERESKSRGKVEIDQQQLTQQQLNGN", "E3 ubiquitin ligase activity for H2BK120": "able to ubiquitinate H2BK120"},
      {"molecule": "E223S: H2BK12Ac unrecognizable MT of extended PHD2 (protein, labeled with the dye NT-647 (Cy5), in the MST only; left off: GST, end not stated, kept) MSSSVEQKKGPTRQRKCGFCKSNRDKECGQLLISENQKVAAHHKCMLFSSALVSSHSDNESLGGFSIEDVQKEIKRGTKLMCSLCHCPGATIGCDVKTCHRTYHYHCALHDKAQIREKPSQGIYMVYCRKHKKTAHNSEADLEESFNEHELEPSSPKSKKKSRKGRPRKTNFKGLSEDTRSTSSHGTDEMESSSYRDRSPHRSSPSDTRPKCGFCHVGEEENSARGKLHIFNAKKAAAHYKCMLFSSGTVQLTTTSRAEFGDFDIKTVLQEIKRGKRMKCTLCSQPGATIGCEIKACVKTYHYHCGVQDKAKYIENMSRGIYKLYCKNHSGNDERDEEDEERESKSRGKVEIDQQQLTQQQLNGN", "E3 ubiquitin ligase activity for H2BK120": "neither C82A (functional activity dead MT of extended PHD1 by disrupting Zinc ion capturing) nor E223S (H2BK12Ac unrecognizable MT of extended PHD2) were able to ubiquitinate H2BK120"},
      {"molecule": "C82A (protein, UniProt Q8IWS0 2-365, looked up, variant C82A) PHD finger protein 6: SSSVEQKKGPTRQRKCGFCKSNRDKECGQLLISENQKVAAHHKCMLFSSALVSSHSDNESLGGFSIEDVQKEIKRGTKLMASLCHCPGATIGCDVKTCHRTYHYHCALHDKAQIREKPSQGIYMVYCRKHKKTAHNSEADLEESFNEHELEPSSPKSKKKSRKGRPRKTNFKGLSEDTRSTSSHGTDEMESSSYRDRSPHRSSPSDTRPKCGFCHVGEEENEARGKLHIFNAKKAAAHYKCMLFSSGTVQLTTTSRAEFGDFDIKTVLQEIKRGKRMKCTLCSQPGATIGCEIKACVKTYHYHCGVQDKAKYIENMSRGIYKLYCKNHSGNDERDEEDEERESKSRGKVEIDQQQLTQQQLNGN", "E3 ubiquitin ligase activity for H2BK120": "neither C82A (functional activity dead MT of extended PHD1 by disrupting Zinc ion capturing) nor E223S (H2BK12Ac unrecognizable MT of extended PHD2) were able to ubiquitinate H2BK120"},
      {"molecule": "R129A (protein, UniProt Q8IWS0 2-365, looked up, variant R129A) PHD finger protein 6: SSSVEQKKGPTRQRKCGFCKSNRDKECGQLLISENQKVAAHHKCMLFSSALVSSHSDNESLGGFSIEDVQKEIKRGTKLMCSLCHCPGATIGCDVKTCHRTYHYHCALHDKAQIREKPSQGIYMVYCAKHKKTAHNSEADLEESFNEHELEPSSPKSKKKSRKGRPRKTNFKGLSEDTRSTSSHGTDEMESSSYRDRSPHRSSPSDTRPKCGFCHVGEEENEARGKLHIFNAKKAAAHYKCMLFSSGTVQLTTTSRAEFGDFDIKTVLQEIKRGKRMKCTLCSQPGATIGCEIKACVKTYHYHCGVQDKAKYIENMSRGIYKLYCKNHSGNDERDEEDEERESKSRGKVEIDQQQLTQQQLNGN", "E3 ubiquitin ligase activity for H2BK120": "indispensable for E3 ligase activity of PHF6"},
      {"molecule": "M125A (protein, UniProt Q8IWS0 2-365, looked up, variant M125A) PHD finger protein 6: SSSVEQKKGPTRQRKCGFCKSNRDKECGQLLISENQKVAAHHKCMLFSSALVSSHSDNESLGGFSIEDVQKEIKRGTKLMCSLCHCPGATIGCDVKTCHRTYHYHCALHDKAQIREKPSQGIYAVYCRKHKKTAHNSEADLEESFNEHELEPSSPKSKKKSRKGRPRKTNFKGLSEDTRSTSSHGTDEMESSSYRDRSPHRSSPSDTRPKCGFCHVGEEENEARGKLHIFNAKKAAAHYKCMLFSSGTVQLTTTSRAEFGDFDIKTVLQEIKRGKRMKCTLCSQPGATIGCEIKACVKTYHYHCGVQDKAKYIENMSRGIYKLYCKNHSGNDERDEEDEERESKSRGKVEIDQQQLTQQQLNGN", "E3 ubiquitin ligase activity for H2BK120": "indispensable for E3 ligase activity of PHF6"}
    ]}
  ]
}
